From the supplement of paper PMC7877785
± gives the uncertainty stated by the source.

Experiment: self-splicing fitness, log relative to wild type (ln ratio); higher = more splicing; Tetrahymena group I intron in knt gene, E. coli kanamycin selection, DiMSum; sequences stand for … in CUCUCU…GGAGGGAAAAGUUAUCAGGCAUGCACCUGGUAGCUAGUCUUUAAACCAAUAGAUUGCAUCGGUUUAAAAGGCAAGACCGUCAAAUUGCGGGAAAGGGGUCAACAGCCGUUCAGUACCAAGUCUCAGGGGAAACUUUGAGAUGGCCUUGCAAAGGGUAUGGUAAUAAGCUGACGGACAUGGUCCUAACCACGCAGCCAAGUCCUAAGUCAACAGAUCUUCUGUUGAUAUGGAUGCAGUUCACAGACUAAAUGUCGGUCGGGGAAGAUGUAUUCUUCUCAUAAGAUAUAGUCGGACCUCUCCUUAAUGGGAGCUAGCGGAUGAAGUGAUGCAACACUGGAGCCGCUGGGAACUAAUUUGUAUGCGAAAGUAUAUUGAUUAGUUUUGGAGUACUCGUGGUCG
How it was run: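 Pooled colonies went to amplicon sequencing on an Illumina HiSeq 2500 after six replicate transformations. The plates were LB agar with 100 μg/mL carbenicillin, 50 μM IPTG and 0.2% rhamnose, with or without 25 μg/mL kanamycin, incubated overnight at 37°C or 30°C. The E. coli BL21(DE3) library had all eight P1ex-region intron nucleotides randomised, the intron placed in the knt kanamycin-resistance gene on pET-22b(+). DiMSum fitness is the error-weighted combination of replicate fold changes, kanamycin against none, normalised to wild type.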

Sequence | self-splicing fitness (ln) (30 °C) | self-splicing fitness (ln) (37 °C)
UUCUAGCAAUAUUACGCGCA | -0.451 ± 0.088 | -0.191 ± 0.097
UUCUAGCAAUAUUACGCGUG | -2.22 ± 0.12 | -0.708 ± 0.1
UUCUAGCAAUAUUACGCUAG | -3.41 ± 0.23 | -2.42 ± 0.41
UUCUAGCAAUAUUACGGCAG | 0.185 ± 0.42 | -0.821 ± 0.39
UUCUAGCAAUAUUACGGCGG | -2.93 ± 0.16 | -1.28 ± 0.13
UUCUAGCAAUAUUACGUACC |  | -0.136 ± 0.48
UUCUAGCAAUAUUACGUAGG | -2.25 ± 0.24 | -0.645 ± 0.31
UUCUAGCAAUAUUACGUCAG | -3.16 ± 0.37 | -1.75 ± 0.26
UUCUAGCAAUAUUACGUCCU | -1.87 ± 0.38 | -2.91 ± 0.36
UUCUAGCAAUAUUACGUCUU | -3.03 ± 0.29 | -2.26 ± 0.23
UUGAAGCAAUAUUACGACGC | -0.722 ± 0.11 | 0.156 ± 0.14
UUGAAGCAAUAUUACGACUA | 0.321 ± 0.098 | 0.141 ± 0.11
UUGAAGCAAUAUUACGAUAC | -2.62 ± 0.2 | -2.62 ± 0.26
UUGAAGCAAUAUUACGAUAG | 0.155 ± 0.071 | 0.398 ± 0.095
UUGAAGCAAUAUUACGCCAA | -0.371 ± 0.094 | -0.324 ± 0.11
UUGAAGCAAUAUUACGCCCU | -0.0294 ± 0.13 | 0.698 ± 0.16
UUGAAGCAAUAUUACGCGAA | -0.789 ± 0.08 | -0.585 ± 0.093
UUGAAGCAAUAUUACGCGCA | 0.548 ± 0.12 | 0.381 ± 0.12
UUGAAGCAAUAUUACGCGGG | -1.95 ± 0.1 | -0.668 ± 0.12
UUGAAGCAAUAUUACGCGUU | -3.35 ± 0.15 | -0.906 ± 0.12
UUGAAGCAAUAUUACGCUAG | -0.524 ± 0.19 | -0.328 ± 0.17
UUGAAGCAAUAUUACGGCGC | -2.04 ± 0.17 | -0.68 ± 0.19
UUGAAGCAAUAUUACGGCUC | -3.8 ± 0.25 | -1.42 ± 0.19
UUGAAGCAAUAUUACGGGUC | -3.77 ± 0.25 | -1.71 ± 0.25

Sequence | self-splicing fitness (ln) (30 °C) | self-splicing fitness (ln) (37 °C)
UUGAAGCAAUAUUACGUAAG | -0.735 ± 0.083 | 0.223 ± 0.12
UUGAAGCAAUAUUACGUACG | -0.166 ± 0.053 | 0.427 ± 0.074
UUGAAGCAAUAUUACGUAUU | -2.69 ± 0.12 | -0.933 ± 0.12
UUGAAGCAAUAUUACGUCAG | 0.252 ± 0.076 | 0.934 ± 0.11
UUGAAGCAAUAUUACGUUCG | -0.397 ± 0.065 | 0.0406 ± 0.088
UUGAAGCAAUAUUACGUUUG | -1.6 ± 0.12 | -0.811 ± 0.19
UUGCAGCAAUAUUACGAACC | -1.76 ± 0.45 | 
UUGCAGCAAUAUUACGACCC |  | -0.535 ± 0.4
UUGCAGCAAUAUUACGACUC | -1.2 ± 0.11 | -0.0756 ± 0.12
UUGCAGCAAUAUUACGAGCU | -2.6 ± 0.1 | -1.37 ± 0.11
UUGCAGCAAUAUUACGAGGC | -3.55 ± 0.23 | -2.07 ± 0.22
UUGCAGCAAUAUUACGAUAG | -0.692 ± 0.079 | 0.225 ± 0.11
UUGCAGCAAUAUUACGAUCA | -1.37 ± 0.12 | -0.0311 ± 0.11
UUGCAGCAAUAUUACGAUGC | -3.16 ± 0.46 | -1.54 ± 0.45
UUGCAGCAAUAUUACGCAAG | -1.92 ± 0.16 | -2.89 ± 0.36
UUGCAGCAAUAUUACGCAUC | -3.11 ± 0.22 | -3.18 ± 0.33
UUGCAGCAAUAUUACGCCCA | -1.28 ± 0.21 | -0.155 ± 0.25
UUGCAGCAAUAUUACGCCUU | -0.0132 ± 0.081 | 0.15 ± 0.11
UUGCAGCAAUAUUACGCGAU | -2.02 ± 0.29 | -2.6 ± 0.36
UUGCAGCAAUAUUACGCGUA | -0.889 ± 0.13 | -0.457 ± 0.11
UUGCAGCAAUAUUACGCUAU | -2.99 ± 0.25 | -1.16 ± 0.17
UUGCAGCAAUAUUACGCUCU | -1.01 ± 0.12 | -0.306 ± 0.13
UUGCAGCAAUAUUACGCUUA | -0.263 ± 0.12 | -0.0443 ± 0.13
UUGCAGCAAUAUUACGGCGU | -0.34 ± 0.051 | 0.352 ± 0.065
